Test results: EP1577321A1

Biological target: patched (on patched-transfected EBNA-293 cells)
Experiment: FACS competition with Shh-Ig on patched-transfected EBNA-293 cells

| Substance | IC50 |
| --- | --- |
| tethered human Sonic hedgehog (N-terminal palmitoyl, C-terminal cholesterol) purified from High Five insect cells (from UniProt Q14623 28-201) (ligand) | 0.4 µg/mL |
| soluble human Sonic hedgehog N-terminal fragment (unmodified, produced in E. coli) (from UniProt Q14623 28-201) (ligand) | 0.15 µg/mL |
